The target in assay [1] is tag-free BcsRQ complex (E. coli 1094) (UniProt P37655). The experiment in a line: SEC-MALS; purified tag-free BcsERQ^FL complex on Superose 6 Increase 10/300 GL, with Cymal-6 detergent. (In general: Size exclusion chromatography separates by hydrodynamic size, large species first.)
Assay [2] deals with BcsQ (tag-free) (E. coli 1094) (UniProt P37655). The experiment in a line: SEC-MALS; purified sample on Superdex 200 Increase 10/300 GL in its gel filtration buffer (20 mM HEPES pH 8.0, 120 mM NaCl, 2 mM DTT for BcsRQ), 0.5 ml/min.
Assay [3] has as its target BcsE^217-523 (purified, tag-free) (E. coli 1094) (UniProt P37657). The assay can be described thus: ITC; apparent constants; Microcal VP-ITC, 20 C; tag-free BcsRQ (180 uM, syringe) titrated into BcsE^217-523 (18 uM, cuvette); 20 mM HEPES pH 8.0, 100 mM NaCl, 2 mM DTT; single-site binding model. A general note: ITC needs no label: the signal is the heat of the interaction.

The stoichiometry N is the number of molecules, sites or subunits per partner or assembly.

“BcsE^FL (tag-free) (from UniProt P37657 1-523) (natural protein)” registered a stoichiometry N (BcsE:BcsR:BcsQ, printed as 2:2:2) in assay [1] of 1.

“BcsR (His tag cleaved, in tag-free BcsRQ) (natural protein)”: the stoichiometry N (BcsR:BcsQ, printed as 2:2) in assay [2] turned out to be 1. As for “tag-free BcsRQ complex (from UniProt P37655 1-242)”, in assay [3], the Kd turned out to be 16 nM and the stoichiometry N is 0.95.

These data come from article PMC7439463.
